Experimental data reported in US20260201002A1, “KERATIN CF1, PREPARATION METHOD THEREFOR, PHARMACEUTICAL COMPOSITION COMPRISING SAME, AND USE THEREOF” (INSTITUTE OF MATERIA MEDICA ,CHINESE ACADEMY OF MEDICAL …, priority 2023, published 2026).
Structures can show the parent of a compound that is named as a salt.

How the values were obtained:
[1] = test system: ammonia water-induced cough in mice; assay: Antitussive effect on ammonia water-induced cough in mice; assay type: in vivo, ICR mice; conditions: for Latency period: 1 hour before 10% ammonia water 10 seconds, solvent control 30.0 ± 1.8; for Latency period / Cough frequency: X ± SEM; for Cough frequency: within 2 minutes, 1 hour before 10% ammonia water, solvent control 65.5 ± 3.8
Experimental: • Animals: male ICR mice; • Drug and reagents: dextromethorphan hydrobromide, ammonia, 0.2% CMC-Na, protein CF1; • Instruments: Compressed nebulizer (403T), balance (XS105DU). • Experiment grouping: • Solvent control group; • Dextromethorphan 15 mg/kg group; • Protein CF1, 20 mg/kg group, 50 mg/kg group.
Model establishment and drug administration: Mice were orally administered dextromethorphan or varying doses of protein CF1 (administration volume: 10 ml/kg). The solvent control group were administered an equal volume of distilled water. After 1 hour, mice were placed in a sealed chamber and atomized with 10% ammonia water for 10 seconds. The cough latency period and cough frequency within 2 minutes were then observed and recorded.
Data processing: The oral administration time point, the nebulization exposure time point, the cough latency period, and the cough frequency within 2 minutes were recorded respectively. The cough latency period refers to the time interval of seconds required from the start of ammonia nebulization to the occurrence of coughing. The manifestation of coughing in mice is characterized by the contraction of their abdominal muscles (chest retraction) and the opening of their mouths wide. The mean and standard error of data in each group were calculated. The TTEST test was applied to compare the model group with the other groups. P<0.05 was considered as a significant difference.

[2] = test system: yeast-induced fever model in rats; assay: Yeast-induced SD rat fever model; assay type: in vivo, SD rats; conditions: for Basal body temperature: rectal temperature before modeling, N=8; for Body temperature 2 hours after modeling / Body temperature 6 hours after modeling / Body temperature 8 hours after modeling / Body temperature 4 hours after modeling: then 20% yeast suspension 10 ml/kg s.c.; for Body temperature 2 hours after modeling: model group 37.5 ± 0.1; for Body temperature 6 hours after modeling / Body temperature 8 hours after modeling: model group 37.6 ± 0.1; for Body temperature 4 hours after modeling: model group 37.7 ± 0.1; for Effect on body temperature of model rats (in words): P<0.05 vs model group
Experimental: • Animals: male SD rats, weight 230-260 grams; • Medicines: yeast (OXOID LP0021), Aspirin (SIGMA A2093), protein CF1; • Instruments: electronic balance (SARTORIUS BP121S), electronic clinical thermometer • (CITIZEN CT-513W). • Experiment grouping: • Normal control group; • Model group: yeast-induced fever model; • Positive control group: Aspirin 300 mg/kg group; • Protein CF1, 10 mg/kg group, 50 mg/kg group.
Preparation of experimental animals: After the experimental animals were adapted to the experimental environment (temperature 22° C.±2° C., relative humidity 50%±2%) for 1 day, the rectal temperature was measured for pre-adaptation at 8:00 in the morning and 15:00 respectively. The animals were fasted for 12 hours before the experiment with water provided ad libitum, and their bowels were emptied before the rectal temperature was measured. Before each temperature measurement, the probe of the electronic thermometer was applied with Vaseline and inserted 2 cm into the rat's rectum (a marker was made at 2 cm to ensure consistent insertion depth each time). The body temperature was recorded after readings stabilized.
(§1) Subcutaneous injection of dry yeast to replicate the rat fever model: Before model establishment, the body temperature of rats was measured. Qualified rats with body temperatures of 36.2-37.3° C. were selected and randomly grouped, with 8 rats per group. After oral administration of aspirin and different doses of protein CF1, 20% yeast suspension (10 ml/kg) was immediately subcutaneously injected. The normal control group was subcutaneously injected with the same volume of normal saline. The body temperatures of rats were monitored 2 hours later, once every 2 hours, for a total of 8 hours.
(§2) Based on the body temperature values measured at each time point on the day of the experiment, the mean, standard deviation and standard error of body temperature of rats in each group were calculated. The TTEST test was applied to compare the data of each group between groups, and P<0.05 was considered as a significant difference.

[3] = test system: lipopolysaccharide (LPS) induced fever in rats; assay: Lipopolysaccharide (LPS)-induced SD rat fever model; assay type: in vivo, SD rats; conditions: for Body temperature 2 hours after modeling / Body temperature 4 hours after modeling / Body temperature 6 hours after modeling / Body temperature 8 hours after modeling: then LPS 20 μg/kg i.p.; for Body temperature 2 hours after modeling / Body temperature 4 hours after modeling: model group 37.7 ± 0.1; for Body temperature 6 hours after modeling: model group 37.8 ± 0.2; for Body temperature 8 hours after modeling: model group 37.9 ± 0.2; for Effect on body temperature of model rats (in words): P<0.05 vs model group
Experimental: • Animals: Male SD rats, weight: 230-260 grams; • Drugs: lipopolysaccharide (LPS, SIGMA L-2880), aspirin (SIGMA A2093), protein CF1; • Instruments: electronic balance (SARTORIUS BP121S), electronic clinical thermometer (CITIZEN CT-513W). • Experiment grouping: • Normal control group; • Model group: lipopolysaccharide fever model group; • Positive control group: Aspirin 300 mg/kg group; • Protein CF1, 10 mg/kg group, 50 mg/kg group. • Method: the method for replicating the rat fever model via intraperitoneal injection of lipopolysaccharide. • Preparation of experimental animals: After the experimental animals were adapted to the experimental environment (temperature 22° C.±2° C., relative humidity 50%±2%) for 1 day, the rectal temperature was measured for pre-adaptation at 8:00 in the morning and 15:00 respectively. The animals were fasted for 12 hours before the experiment with water provided ad libitum, and their bowels were emptied before the rectal temperature was measured. Before each temperature measurement, the probe of the electronic thermometer was applied with Vaseline and inserted 2 cm into the rat's rectum (a marker was made at 2 cm to ensure consistent insertion depth each time). The body temperature was recorded after readings stabilized.
as §1, with “Intraperitoneal Injection” for “Subcutaneous injection”, “Lipopolysaccharide” for “dry yeast”, “lipopolysaccharide (20 μg/kg, 2” for “20% yeast suspension (10”, “intraperitoneally” for “subcutaneously”, “later and” for “later, once every 2 hours,”
as §2

[4] = aspirin 300 mg/kg oral, 2, 4, 6 and 8 hours after modeling

Molecule: COc1ccc2c(c1)[C@]13CCCC[C@@H]1[C@H](C2)N(C)CC3 [Dextromethorphan, dextromethorphan hydrobromide, reference compound]
- Latency period ([1]; dextromethorphan 15 mg/kg oral): 45.4 ± 2.1 s
- Effect on latency period and cough frequency (in words) ([1]; dextromethorphan 15 mg/kg oral, vs solvent control group, P<0.05): significant improvements in terms of latency period and cough frequency
- Cough frequency ([1]; dextromethorphan 15 mg/kg oral): 36.8 ± 2.8

Molecule: CC(=O)Oc1ccccc1C(=O)O [Aspirin, aspirin, reference compound]
- Basal body temperature ([2]; aspirin 300 mg/kg oral group): 36.9 ± 0.1 °C
- Body temperature 2 hours after modeling ([2]; aspirin 300 mg/kg oral): 36.9 ± 0.1 °C
- Body temperature 6 hours after modeling ([2]; aspirin 300 mg/kg oral): 37.2 ± 0.1 °C
- Body temperature 8 hours after modeling ([2]; aspirin 300 mg/kg oral): 37.1 ± 0.1 °C
- Body temperature 4 hours after modeling ([2]; aspirin 300 mg/kg oral): 37.1 ± 0.2 °C
- Effect on body temperature of model rats (in words) [2, 4]: can effectively inhibit the increase of body temperature
- Body temperature 2 hours after modeling ([3]; aspirin 300 mg/kg oral): 37.0 ± 0.2 °C
- Body temperature 4 hours after modeling ([3]; aspirin 300 mg/kg oral): 37.0 ± 0.2 °C
- Body temperature 6 hours after modeling ([3]; aspirin 300 mg/kg oral): 37.3 ± 0.1 °C
- Body temperature 8 hours after modeling ([3]; aspirin 300 mg/kg oral): 37.2 ± 0.1 °C
- Effect on body temperature of model rats (in words) [3, 4]: can effectively inhibit the increase of body temperature

B1: CF1: keratin with the amino acid sequence of SEQ ID NO. 1, expressed in E. coli; tested batch is the protein in Example 7 (protein)
chain: MSCRSYRVSSGHRVGNFSSCSAGIPRNLNRFRASSVSCRSGPSFRGIGGFGSRSVITFGSCSPRIAAVGPRPIRCGVGFGAGSGMAFGFGDGIGAGLGFGSGSYLGYGFGGPGFGYRVGGIGVPAAPSITPVTVNQSLLTPLNLEIDPNAQRVKRDEKEQIKTLNNRFASFIDKVRFLEQQNKLLETKWSFLQEQKGARSNLEPLFENYITNLQRQLDIANSERARFEAERNQLQDVLEGFKKKYEEEVVFRANAENEFVALKKDVDAAFLNKAELEANVDTLTQEIDFLKTLYAAEIQLLQSHISETSVIVKMDNSRDLDLDGIIAEVRAQYEEVAKRSRADAEAWYQTKYEEMRVTAGQHCDNLRNTREEINELTRLIQRLKAEIEHAKAQRARLEAAVAEAEQQGEAALNDAKCKLADLEAALQQAKQDMARQLREYQELMNAKLGLDIEIATYRRLLEGEEIRICEGVGPVNISVSSSRGGVVCGPESLVTSSTLSRSGVTFSGSSSIRPSGACGSSLGGVVVAGGDLLSAGSRGGSVLVGEACVPSVPCPLPTEGFSSCSGGRSSSLRFVSTTTSRRTKY
- Effect on body temperature of model animals (summary, in words) ([2]; 8 hours post-modeling, dose not stated): significant effect in reducing the elevated body temperature
- Basal body temperature ([2]; CF1 10 mg/kg oral group): 36.9 ± 0.1 °C
- Body temperature 2 hours after modeling ([2]; CF1 10 mg/kg oral): 37.0 ± 0.1 °C
- Body temperature 6 hours after modeling ([2]; CF1 10 mg/kg oral): 37.4 ± 0.1 °C
- Body temperature 8 hours after modeling ([2]; CF1 10 mg/kg oral): 37.2 ± 0.05 °C
- Body temperature 4 hours after modeling ([2]; CF1 10 mg/kg oral): 37.3 ± 0.1 °C
- Effect on body temperature of model rats (in words) ([2]; CF1 10 mg/kg oral, 2 hours and 8 hours post-modeling): can significantly inhibit the temperature elevation
- Basal body temperature ([2]; CF1 50 mg/kg oral group): 36.8 ± 0.1 °C
- Body temperature 2 hours after modeling ([2]; CF1 50 mg/kg oral): 36.8 ± 0.1 °C
- Body temperature 6 hours after modeling ([2]; CF1 50 mg/kg oral): 37.4 ± 0.1 °C
- Body temperature 8 hours after modeling ([2]; CF1 50 mg/kg oral): 37.4 ± 0.1 °C
- Body temperature 4 hours after modeling ([2]; CF1 50 mg/kg oral): 37.2 ± 0.1 °C
- Effect on body temperature of model rats (summary, in words) ([3]; 2 hours post-modeling, dose not stated): significant effect in reducing the body temperature
- Body temperature 2 hours after modeling ([3]; CF1 10 mg/kg oral): 37.3 ± 0.1 °C
- Body temperature 4 hours after modeling ([3]; CF1 10 mg/kg oral): 37.7 ± 0.2 °C
- Body temperature 6 hours after modeling ([3]; CF1 10 mg/kg oral): 37.7 ± 0.2 °C
- Body temperature 8 hours after modeling ([3]; CF1 10 mg/kg oral): 37.9 ± 0.1 °C
- Effect on body temperature of model rats (in words) ([3]; CF1 10 mg/kg oral, 2 hours after modeling): can significantly reduce the body temperature
- Basal body temperature ([3]; CF1 50 mg/kg oral group, rectal temperature before modeling, N=8): 36.8 ± 0.05 °C
- Body temperature 2 hours after modeling ([3]; CF1 50 mg/kg oral): 37.3 ± 0.2 °C
- Body temperature 4 hours after modeling ([3]; CF1 50 mg/kg oral): 37.6 ± 0.2 °C
- Body temperature 6 hours after modeling ([3]; CF1 50 mg/kg oral): 37.9 ± 0.2 °C
- Body temperature 8 hours after modeling ([3]; CF1 50 mg/kg oral): 37.9 ± 0.1 °C
- Latency period ([1]; CF1 20 mg/kg oral): 34.6 ± 3.1 s
- Effect on cough frequency (in words) ([1]; CF1 20 mg/kg oral, vs solvent control group): statistically significant difference in term of cough frequency, but the effect is weak
- Latency period ([1]; CF1 50 mg/kg oral): 35.1 ± 4.6 s
- Antitussive effect (summary, in words) ([1]; dose not stated): can reduce the cough frequency
- Cough frequency ([1]; CF1 20 mg/kg oral): 50.1 ± 2.8
- Cough frequency ([1]; CF1 50 mg/kg oral): 56.4 ± 4.2
